In paper PMC2809015:
pKd: −log10 of the molar value.

Legend:
[1] = target: HscB, co-chaperone of HscA (E. coli) (UniProt P0A6L9)
[2] = target: IscA, FeS cluster assembly scaffold protein (E. coli) (UniProt P0AAC8)
[3] = target: IscU, FeS cluster assembly scaffold protein (E. coli) (UniProt P0ACD4)
[4] = target: IscU (Escherichia coli) (UniProt P0ACD4); assay: surface plasmon resonance; conditions: cited from earlier work
Sequence of IscU (Escherichia coli) (P0ACD4 whole entry): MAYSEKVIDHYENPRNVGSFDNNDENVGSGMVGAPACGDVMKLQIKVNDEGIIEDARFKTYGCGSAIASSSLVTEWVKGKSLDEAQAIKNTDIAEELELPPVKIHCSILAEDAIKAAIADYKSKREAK

Sequence of IscA, FeS cluster assembly scaffold protein (E. coli) (P0AAC8 whole entry): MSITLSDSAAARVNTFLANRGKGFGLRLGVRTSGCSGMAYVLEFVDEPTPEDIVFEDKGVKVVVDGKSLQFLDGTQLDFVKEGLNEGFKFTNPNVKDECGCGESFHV
Sequence of Biotin synthase (BioB), cluster state not stated for the experiment (P12996 whole entry): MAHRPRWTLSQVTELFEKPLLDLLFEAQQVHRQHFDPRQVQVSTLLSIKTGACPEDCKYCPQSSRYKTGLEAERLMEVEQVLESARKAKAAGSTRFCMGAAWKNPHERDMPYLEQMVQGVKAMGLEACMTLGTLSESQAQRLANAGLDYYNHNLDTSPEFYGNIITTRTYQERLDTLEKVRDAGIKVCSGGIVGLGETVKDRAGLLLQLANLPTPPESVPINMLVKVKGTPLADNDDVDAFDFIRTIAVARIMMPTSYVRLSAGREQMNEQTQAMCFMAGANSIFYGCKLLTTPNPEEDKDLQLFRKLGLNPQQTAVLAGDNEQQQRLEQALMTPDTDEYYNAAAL
Sequence of HscA (P0A6Z1 whole entry): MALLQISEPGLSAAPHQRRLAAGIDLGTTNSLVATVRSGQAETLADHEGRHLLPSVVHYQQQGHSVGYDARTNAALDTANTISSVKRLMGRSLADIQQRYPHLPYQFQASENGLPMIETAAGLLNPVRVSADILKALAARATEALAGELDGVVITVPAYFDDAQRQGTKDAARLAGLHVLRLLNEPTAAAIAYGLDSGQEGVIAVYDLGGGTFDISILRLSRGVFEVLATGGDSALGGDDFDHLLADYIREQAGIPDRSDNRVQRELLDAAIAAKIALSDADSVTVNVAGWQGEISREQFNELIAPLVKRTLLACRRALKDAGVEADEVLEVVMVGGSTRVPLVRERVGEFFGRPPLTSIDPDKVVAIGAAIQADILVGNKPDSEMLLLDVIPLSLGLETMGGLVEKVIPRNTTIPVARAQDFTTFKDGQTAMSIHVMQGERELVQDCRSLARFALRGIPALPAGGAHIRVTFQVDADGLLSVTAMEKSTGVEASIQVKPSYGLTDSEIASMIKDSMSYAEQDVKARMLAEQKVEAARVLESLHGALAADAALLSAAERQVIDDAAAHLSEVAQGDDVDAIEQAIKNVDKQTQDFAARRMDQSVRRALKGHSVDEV
Sequence of IscU, FeS cluster assembly scaffold protein (E. coli) (P0ACD4 whole entry): as the sequence (P0ACD4 whole entry) above
Sequence of HscB, co-chaperone of HscA (E. coli) (P0A6L9 whole entry): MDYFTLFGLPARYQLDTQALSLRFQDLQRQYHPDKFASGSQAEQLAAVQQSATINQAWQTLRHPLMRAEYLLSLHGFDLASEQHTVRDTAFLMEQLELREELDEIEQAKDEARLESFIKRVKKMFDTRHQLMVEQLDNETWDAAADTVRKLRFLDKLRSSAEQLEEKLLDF

pKd [1] | pKd [2] | pKd [3] | Substance | pKd [4]
< 5.00 | < 5.00 | < 5.00 | Biotin synthase (BioB), cluster state not stated for the experiment (from UniProt P12996 1-346) (enzyme) | 
 |  |  | HscA (from UniProt P0A6Z1) | 5.03
